{"source": "the DeepSol protein solubility set", "data": [{"assay": "soluble on expression in E. coli; label from the status in PepcDB or PDB records", "values": [{"sequence": "MGSDKIHHHHHHMEKFKGALVVGALRLFALLPWRAVQGVGAGIGWLMWKLPNRSREVVRINLSKCFPELSETELEKLVGQSLMDIGRTLTESACAWIWPPEKSLRYIREVEGMEVLEEALASGDGLVGITSHLGNWEVLNHFYCSYAKPIIFYRPPKLKAVDELLKKQRVQLGNRVAPSTPEGILSVIKEVKKGGCVGIPADPEPARTAGLFVPYLGTTALISKFVPQLLSRGKARGVFFHAVRLPDGSGYKVILEAAPADMYDKDLEVSVAAMSRELAKYVRAYPSQYMWSMKRFKNRPDGEKKWY", "soluble on expression in E. coli": "not soluble"}, {"sequence": "KGSAFAPGITAGMGVKYKLKPRINVGIEYSFTGLLTDALDALTDKSVWLEDPYKINDSWVKNKDATGALVLRITYDFGLRKTFCNKQ", "soluble on expression in E. coli": "not soluble"}, {"sequence": "MSERVCAVIVTYNRKALLRECLKAVLSQTRPPDHVLVVDNASTDGTPEMLQEEFPQVEVLRLPENQGGAGGFHEGMKRAYEQGVDWLWLMDDDTIPKAKALEALLEAARLPLDPRPRVLASRQLLPNGLPHPTTAFVNPTDPRHPFLWLRLRPRYRPIRWALFTSVLLHRSLVEEHGLPHKAFFIWEDDLEYTARALRRGLGLQVRDSEVIHKSASKPYISATTGENRLFYGVRNRIWVLRSPAFGPLGKAFLALQLLFGLLTYLAFHPSQKSLQEIGRALRAGLTTSPCLEHHHHHH", "soluble on expression in E. coli": "not soluble"}, {"sequence": "HHHHHHMQHLVLIGFMGSGKSSLAQELGLALKLEVLDTDMIISERVGLSVREIFEELGEDNFRMFEKNLIDELKTLKTPHVISTGGGIVMHENLKGLGTTFYLKMDFETLIKRLNQKEREKRPLLNNLTQAKELFEKRQALYEKNASFIIDARGGLNNSLKQVLQFIA", "soluble on expression in E. coli": "soluble"}, {"sequence": "MSLRKNPYRLSDEIFGISFRTADRIAKSLGIDPYSKYRISSGIKYVLSRAATEGHTFLEEEMLKSYTSKLLDINIDSIEDALVSLVLNKSVYVDRNDGMSKIYLSSFYHAELGVCRKLVELSQVRYSADMEDFEERIKQVQKKEGIILADKQKEAIREAMTNGVLVITGGPGTGKTTIIKSIISLLESEGYEFALAAPTGRAAKRMSEATGYEAKTIHRLLEIGYTSNEDELVFMRTEDNPIEADVVIIDEMSMVDIILMYHLLKAIVCGTRLILVGDVDQLPSVGPGNVLRDIIKSGMIKTVKLSEIFRQAGESMIVVNAHRINRGEHPILNEREKDFFFVTRNSQNDILKTVVDLCTRRIPDTYGYDPMKQIQVLSPMRKGTVGVANLNIELQKVLNPEDGKEGHHHHHH", "soluble on expression in E. coli": "soluble"}, {"sequence": "MSLTRISELPPQIRQEIEQLDQYIQKQVQISHHLKADTIDHDELIDSIPRDVAYLLKSESATSQYLKQDLKKISSFKSLIDEDLLDTQTFSVLLQQLLTPGSKISSNDLDKFFQKKIHLYEKKLEDYCRILSDIETAVNGIDTDLFGAPNNPNSTAITADLGSSEAENLLQLKTGLAAIVSTVIEEFTLFMDIAERIAVLHQKTKTLASLSEGHHHHHH", "soluble on expression in E. coli": "soluble"}, {"sequence": "SDKDSQGLLDSSLMASGTASRSEDEESLAGQKRASSQALGTIPKRRSSSRFIKRKKFDDELVESSLAKSSTRVKGAGGVESGRCSGSEPSSSEKKKVSKAPSTPVPPSPAPTPGLTKRVKKSKQPLQVTKDLGRWKPADDLLLINAVLQTNDLTSVHLGVKFSCRFTLREVQERWYALLYDPVISKLACQAMRQLHPEAIAAIQSKALFSKAEEQLLSKVGSSSQPTLETFQDLLHTHPDAFYLARTAKALQAHWQLMKQYYLLEDQTVQPLPKGDQVLNFSDAEDLIDDSKLKDMRDEVLEHELTVADRRQKREIRQLEQELHKWQVLVDSITGMGSPDFDNQTLAVLRGRMVRYLMRSREITLGRATKDNQIDVDLSLEGPAWKISRKQGVIKLKNNGDFFIANEGRRPIYIDGRPVLCGSKWRLSNNSVVEIASLRFVFLINQDLIALIRAEAAKITPQ", "soluble on expression in E. coli": "soluble"}, {"sequence": "MAGDPMGNSSTKGSADSKGDKLHVVTTFYPMYEFTKQIVKDKGDVDLLIPSSVEPHDWEPTPKDIANIQDADLFVYNSEYMETWVPSAEKSMGQGHAVFVNASKGIDLMEGSEEEHEEHDHGEHEHSHAMDPHVWLSPVLAQKEVKNITAQIVKQDPDNKEYYEKNSKEYIAKLQDLDKLYRTTAKKAEKKEFITQHTAFGYLAKEYGLKQVPIAGLSPDQEPSAASLAKLKTYAKEHNVKVIYFEEIASSKVADTLASEIGAKTEVLNTLEGLSKEEQDKGLGYIDIMKQNLDALKDSLLVKSLEHHHHHH", "soluble on expression in E. coli": "soluble"}, {"sequence": "MGSDKIHHHHHHMEDFWRIRATDTAWKGVLHLASPRRYSRGEVIIRAGEMVDSLFYLESGEVRMIRTSMEGSEKILMYIEEGTLFGETPFFTGQPILSTFVCSRPAVIWRFSRHSVYADLLPNHPEIVSSLLHTFAAKVSTLSNQSASLGLQNVAERLCTFLYVTSGESISGAHGAELKLSMKMRDIANLLGVHRTTLYKAIRDLEKEGVLENFTRDSVRIADVTRFLEMVHK", "soluble on expression in E. coli": "not soluble"}, {"sequence": "MKEKEKIYRHLTEEEISVLEGNYCQCADWTMVEVADGFDANRCLHVMFSGQIRIGSTRGSHLLPGGLHVPTGINIARLHNCIVGDEVVIFHVNSYLANYRIGDYTRIENIDTIAVTESTSFGNGVEVTVLNETGGREVTITDNLTAQTAYLMAMYRHDKVLTESLAAMARAYAESRRSDMGAIGSHVVIHGCNTIENVCIGDYTEITGASHLCNGSINSKKEAPVSVGYNVVCRDFILCSGSSVTDGATVSHCFVGQGTHLGHLFSAHDSLFFANCQGENGEACAVFAGPYTVSMHK", "soluble on expression in E. coli": "not soluble"}, {"sequence": "MTIDTTNESDNSPTNSPGLEASARTFSLNASKMVRITDDYADEVFIEQNDVVIEKPRMDPLHVRKLMETWRKAARRARTNYIDPWDEFNIHEYPVQRAKRYRYSAIRKQWTEDIVDVRLHPDSFARGAMRECYRLKKCSKHGTSQDWSSNYVAKRYICQVDRRVLFDDVRLQMDAKLWAEEYNRYNPPKKIDIVQMCVIEMIDVKGSPLYHLEHFIEGKYIKYNSNSGFVSNAARLTPQAFSHFTFERSGHQMMVVDIQGVGDLYTDPQIHTVVGTDYGDGNLGTRGMALFFHSHRCNDICETMDLSNFELSPPEIEATEVAMEVAAKQKKSCIVPPTVFEARRNRISSECVHVEHGISMDQLRKRKTLNQSSTDLSAKSHNEDCVCPECIPVVEQLCEPCSEDEEDEEEDYPRSEKSGNSQKSRRSRMSISTRSSGDESASRPRKCGFVDLNSLRQRHDSFRSSVGTYSMNSSRQTRDTEKDEFWKVLRKQSVPANILSLQLQQMAANLENDEDVPQVTGHQFSVLGQIHIDLSRYHELGRFVEVDSEHKEMLEGSENDARVPIKYDKQSAIFHLDIARKCGILEAVLTSAHIVLGLPHELLKEVTVDDLFPNGFGEQENGIRDLEEFGSDLMEIAAEMGDKGAMLYMAHAYETGQHLGPNRRTDYKKSIDWYQRVVGFQEEEELDSDCGKTTFSSFAPLTRHEILAKMAEMYKEGGYGLNQDFERAYGLFNEAAEAAMEAMNGKLANKYYEKAEMCGE", "soluble on expression in E. coli": "not soluble"}, {"sequence": "MAELQFPGVYVEDVGHLAFGTLKLTEKSLNFKGDKGGKSVNVTGSDIDKLKWQKLGNKPGLRVGLNDGGAHRFGGFKDTDLEKIQSFTSSNWSQSIDQSNLFIKGWNYGQAEVKGKTVEFSWEDKPIFEIPCTNVSNVIANKNEAVLEFHQNDDSKVQLMEMRFHMPIDLENEEDADKVEEFKKAVLAYAGLEAETEQPICLLTDILCTTPRGRYDIKVYPTSIALHGKTYDYKIPIKSINRLFLVPHKDGRHVYFVLSLNPPIRQGQTRYSYLIFEFGKDEEQDLELALTDEQLESSNGNLRRDMTGPIYETISILFKSICNLKITVPGRFLGSSGTPAIQCTHRQNPGLLYPMEKGFLFIHKPAMYIRFEEISSCHFARSDSGTVTRTFDFEIDLKYGGPLTFNAMEKEENNKLFDYLNKKNIKIRNSQRVENTVADSSDDEIDPYKAAVTAEGRQRDDSDDDSTDEDYDLDKDIKKKKEDKESSEGTGSEPDDEYDSGSEQDSSGTGESEPDSEQDVPSKRRKGEPKEKREKKEKREKKEGKKGKKDKDPNAPKRATSAYMQWFLASRNELKEDGDSVADVAKKGGAKWKTMSSDDKKKWEEKAEEDKSRYEKEMKEYRKNGPPSSSSKPSSSKTSKKSSGPSSSKAISKEYISDSDDSDDEEPKKKEKKAAPKEESEESNNGSDGSDESDDSD", "soluble on expression in E. coli": "soluble"}, {"sequence": "MRAVVLVPFLKQQRENRDAASAPAAPGRSVEAKLEEAKGLALAIDLEVTQGLVVPVNQPRPATLFGTGKIEEIGHLLDETNSGLVIVDHPLTPVQQRNLEKQWNAKVIDRTGLILEIFGRRASTKEGTLQVDLAHLNYQKGRLVRSWTHLERQRGGAGFMGGPGETQIEADRRLLQDRIVKLEKELEQVVRTRQLHRAKRRKVPHPIVALVGYTNAGKSTLFNRITGAGVLAEDMLFATLDPTLRRMKLPHGRTVILSDTVGFISDLPTHLVAAFRATLEEVLEA", "soluble on expression in E. coli": "not soluble"}, {"sequence": "MGSDKIHHHHHHMASLTFLGAAQEVTGSCYLLETLDGVKVLLECGMRQGRREADNGNRAPFPFDPASIDAVVISHAHLDHSGLLPRLAAEGFKGPIFATEATCELLELMLLDSAHIQEKDAEWENRWRNRIGKPSIKPLYTQADTERALKLRRPISLGSTVAVARGVRVTFHNAGHILGSSIVEVQFHDQVQPRRLVFSGDLGNTCSPLMRAPSPLSRADVVMLESTYGDRDHRDSNDTLEELAAILDQAHRDGGNVLIPSFAVGRTQDLLYYLGRFYQEGRLPQQAVFLDSPMAARANGIYLRHSNEFDDRDREYIRGTGTTRLEEWLPVLRVTRSADESMAINRIKSGAVIIAGSGMCTGGRIVHHFKHNLWRPECHVVFPGFQARGTLGRNIVDGASAVRVFHQRIAVKAQIHTLGGFSAHAGQSQLLDWVGHFAHRPALYLIHGEREKMEALQSAIRERLDWDAEIPEPGERIEI", "soluble on expression in E. coli": "not soluble"}, {"sequence": "MIAGATAPSSQHEILIASNLIKKPSTSQNKTPTAQSSSGNNGAADGAPQGYHHHHHHHRHLWWPRTTDHQYWCVLRKNQFAYYKTRDEREAISVIPRFDILNFKISELDGILTVYTPSKDLIFKFPRGQNEKVGMELMHNWKIALEKFLSSPSGNESVTTGSDYDEEEDDDDLIVVDEKAGPSSSKHSCSLTMDEQLSREDKEFYRMFDPRNAEHQVCSGILYTKVKKKKLFNRAKWQKFNVELTNTSFNLYSFKTGKLKKSIKLDKIIDCIELDNNSKMKNDDTNFALITFDERLSFKAANDQDMVDWIINFKSGILIRKKLKAENI", "soluble on expression in E. coli": "soluble"}, {"sequence": "MSIMSYTGGTVVAMAGDECVCIASDLRIGEQMTTIATDQKKVHKVTDKVYVGLAGFQSDARTVLEKIMFRKNLYELRENRNIKPQVLSEMISNLAYQHRFGSYFTEPLVAGLDDTNKPYICCMDTIGCVSAPRDFVAVGTGQEYLLGVCENFWRENMKPDELFEATAQSILSCLERDAASGWGAVVYTITKDKVNVSTIKARMD", "soluble on expression in E. coli": "not soluble"}, {"sequence": "MAHHHHHHMPVIKEYINPAGLRLDGRRPNEPRRLALEFGKISGCDGCCTVVSGLSHVCATVYGPREVSNRLEGKYNEVTITCDVVVAAFAGERRREQQRYSRLSEDISASVLDVARSVVLLSQYPNSQIHICIEVLKQDGSDKAACINAACLALIDASIAMKDVVYTQTVGLIEGFDVVDLTTEEIHSQCPSICITVQGHDPTNIVWMESNSRLAPEVITRLVKVAQKASTDVFETALRGPLEEHAATVLRLQANLGNIE", "soluble on expression in E. coli": "soluble"}, {"sequence": "MSTLLKSAKSIVPLMDRVLVQRIKAQAKTASGLYLPEKNVEKLNQAEVVAVGPGFTDANGNKVVPQVKVGDQVLIPQFGGSTIKLGNDDEVILFRDAEILAKIAKD", "soluble on expression in E. coli": "not soluble"}, {"sequence": "MSLDSTTIIIYGEKLSDSQRAEVKELLEISDQEMVEEHDVTGQDYADYINGNPRSNMYSSAGIILESQGAGLEVNIVTPENITEVTAEMYENALLTAGAENATVNVVSPVQVSGHSALTGIYKAYDVEGEQLDKERMELANEELNVATDLVDNGDVNQEEVSNLLTEIKKMIAEQNPATREDVEQIVSEQLDQLEINLSEQDRQMLVDLFDKMKDLEIDFGAVKEQLDSITNSIVEKAEDLGLDEGFWDKVANFFRDLFRSIGNLFGEGHHHHHH", "soluble on expression in E. coli": "soluble"}]}]}
